Assays:
RAR (full-length hRARα) = target: T1, RAR (full-length hRARα) (Homo sapiens, UniProt P10276); assay: Yeast two-hybrid interaction with RAR; assay type: binding; conditions: β-galactosidase ONPG assay, 1 μM ligand or vehicle
T1 construct: RAR (full-length hRARα); expressed in transfected cells; host or cells: Saccharomyces cerevisiae Y190
T1 sequence (P10276 1-462): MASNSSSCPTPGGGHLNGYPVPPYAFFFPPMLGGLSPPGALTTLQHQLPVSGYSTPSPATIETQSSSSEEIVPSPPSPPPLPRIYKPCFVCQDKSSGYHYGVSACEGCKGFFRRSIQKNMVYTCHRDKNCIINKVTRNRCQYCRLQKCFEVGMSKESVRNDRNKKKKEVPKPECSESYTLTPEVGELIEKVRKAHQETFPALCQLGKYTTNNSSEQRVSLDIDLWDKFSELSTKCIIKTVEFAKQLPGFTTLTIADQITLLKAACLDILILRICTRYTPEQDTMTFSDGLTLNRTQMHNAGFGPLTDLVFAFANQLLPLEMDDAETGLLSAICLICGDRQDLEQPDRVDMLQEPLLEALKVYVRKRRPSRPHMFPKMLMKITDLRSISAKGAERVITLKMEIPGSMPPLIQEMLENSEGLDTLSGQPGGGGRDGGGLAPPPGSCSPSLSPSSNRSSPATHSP
T1 sequence (Q9Y6Q9 401-1204 E704Q partner limits assumed): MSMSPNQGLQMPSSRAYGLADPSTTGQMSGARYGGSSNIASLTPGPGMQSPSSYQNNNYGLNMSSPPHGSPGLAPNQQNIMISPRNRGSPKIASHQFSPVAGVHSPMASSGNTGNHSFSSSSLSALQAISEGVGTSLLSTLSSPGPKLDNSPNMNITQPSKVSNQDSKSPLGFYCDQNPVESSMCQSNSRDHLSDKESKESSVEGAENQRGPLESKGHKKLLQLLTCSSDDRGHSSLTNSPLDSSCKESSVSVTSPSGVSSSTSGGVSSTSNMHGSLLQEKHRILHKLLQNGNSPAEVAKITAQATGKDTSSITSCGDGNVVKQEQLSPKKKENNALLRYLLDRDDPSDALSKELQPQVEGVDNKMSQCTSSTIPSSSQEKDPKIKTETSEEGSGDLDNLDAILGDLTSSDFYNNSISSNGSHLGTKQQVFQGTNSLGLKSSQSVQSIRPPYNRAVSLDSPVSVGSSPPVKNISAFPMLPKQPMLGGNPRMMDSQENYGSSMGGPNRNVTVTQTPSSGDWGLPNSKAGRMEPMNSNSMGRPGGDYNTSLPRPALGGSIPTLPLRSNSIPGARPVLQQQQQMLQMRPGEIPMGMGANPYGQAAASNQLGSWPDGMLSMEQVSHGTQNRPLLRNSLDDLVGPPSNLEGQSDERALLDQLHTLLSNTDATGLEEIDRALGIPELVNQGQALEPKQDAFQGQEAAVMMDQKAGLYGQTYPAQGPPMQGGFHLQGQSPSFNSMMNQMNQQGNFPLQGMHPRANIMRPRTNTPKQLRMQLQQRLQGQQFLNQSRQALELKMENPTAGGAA
Procedure: (§1) The protein—protein interactions between RAC3 and several steroid/nuclear receptors were analyzed by the yeast two-hybrid system. The original two-hybrid clone, RAC3.1 in pGAD10 vector, was retransformed together with yeast expression vectors for Gal4 DBD fusion of selected hormone receptor genes into Y190 cells. The receptors used include RAR (full-length hRARα), RXR (full-length hRXRα), VDR (LBD of human Vitamin D receptor), PPAR (LBD of mPPARα), TR (LBD) of hTRβ), COUP (LBD of COUP-TFI). Three independent colonies from each transformation were selected and analyzed for expression of […] activities by liquid ONPG assay (FIG. 6) after treatment with 1 μM of corresponding ligands (closed bars), or with equal concentration of vehicle alone (open bars). […] The ligands used in these experiments were atRA, VitD3 (1,25-dihydroxyvitamin D3), and Wy (Wy 14,642). […] In the absence of ligand, RAC3 can interact with RAR and PPAR.

histone = assay: Histone acetyltransferase (HAT) activity; assay type: biochemical; conditions: compared with the p/CAF; unpublished data
CBP = assay: Far-Western analysis of interaction with GST-CBP fusions; assay type: binding; conditions: 35S-labeled full-length RAC3
Procedure: GST fusion proteins were overexpressed and purified from DH5α cells on glutathione agarose beads. The fusion proteins were separated on denaturing protein gels (SDS-PAGE) and electroblotted onto nitrocellulose filters in a transfer buffer (25 mM Tris-HCl, pH 8.3; 192 mM glycine; 0.01% SDS). After denaturation in 6 M guanidine hydrochloride (GnHCl), the proteins were renatured by stepwise dilution of GnHCl to 0.187 M in HB buffer (25 mM Hepes, pH 7.7; 25 mM NaCl; 5 mM MgC12; 1 mM DTT). The filters were then saturated with blocking buffer (5% non-fat milk, then 1% milk in HB buffer plus 0.05% NP40) at 4° C. overnight. In vitro translated 35S-labeled proteins were generated in reticulocyte lysate (Promega) and were diluted into a hybridization buffer (20 mM Hepes, pH 7.7; 75 mM KCl; 0.1 mM EDTA; 2.5 mM MgC12; 0.05% NP40; 1% milk; 1 mM DTT). […] The bound 35S-labeled proteins were detected by autoradiography.
Since SRC-1 can interact with the general transcriptional coactivator CBP and p300 (Yao, T. P., et al. (1996) Proc Natl Acad Sci USA 93, 10626–31.), it was determined whether RAC3 can also interact with CBP by far-Western analyses. Serial GST-CBP fusions covering the SRC-1 interacting domain were analyzed for interactions with ^35S-labeled full-length RAC3, SRC-1 and RAC3-AD (FIGS. 3A, B and C). […]

COUP (LBD of COUP-TFI) = target: T2, COUP (LBD of COUP-TFI) (Homo sapiens, UniProt P10589); assay: Yeast two-hybrid interaction with COUP-TFI; assay type: binding; conditions: β-galactosidase ONPG assay
T2 construct: COUP (LBD of COUP-TFI); expressed in transfected cells; host or cells: Saccharomyces cerevisiae Y190
T2 sequence (P10589 184-410 limits assumed): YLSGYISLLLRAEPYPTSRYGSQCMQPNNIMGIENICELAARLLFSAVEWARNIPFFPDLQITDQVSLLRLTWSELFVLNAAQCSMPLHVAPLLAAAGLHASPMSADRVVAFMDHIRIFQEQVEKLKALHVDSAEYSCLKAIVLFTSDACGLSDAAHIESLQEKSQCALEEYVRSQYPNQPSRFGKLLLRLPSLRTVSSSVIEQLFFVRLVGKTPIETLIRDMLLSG
Procedure: as §1

HAT activity (histone): very weakly
interaction with COUP-TFI (COUP (LBD of COUP-TFI)): did not interact
Substance: RAC3: transcriptional coactivator of steroid/nuclear receptors, protein of about 1417 amino acids (SEQ ID NO:2); RAC3.1 is the two-hybrid clone, amino acids 401–1204
interaction with RAR (RAR (full-length hRARα)): Ligand treatment enhanced these interactions
interaction with CBP fragments C and D (CBP): interacts strongly

— patent US7132258B1, “Nucleic acid encoding vitamin D receptor related polypeptide” (University of Massachusetts, priority 1998, dated 2006)
